Substrate in the data set: O=C[C@H](O)COP(=O)(O)O
The data set is described as follows: purified protein. The conditions noted are these: phosphorylation direction, 0.6 mM NAD+, 50 mM triethanolamine, 50 mM sodium phosphate (printed 'bisphosphate'), 0.2 mM EDTA, 25 °C, pH not stated, G3P 0.25-5 mM.

B1: GeGAPDH1 (Gastrodia elata) (protein)
chain: MASTAFVGSVTPLSEASFPFASSTRAPEPFRVFCWRSRSSEGSSVLCASTSCSKFPLAAISTQKSNRRNFQHTKATATETPPVVSRSSSDGKTKVGINGFGRIGRLVLRIAASRDDIEVVAVNDPFVDAKYMAYMFKYDSTHGTFKGTIKVVDESTIEIDGKRIAVTSKRDPSEITWSDFGAEYVVESSGVFTTMDKASAHLKGGAKKVVISAPSADAPMFVVGVNEQMYQPHMNIVSNASCTTNCLALLAKVVHEEFGIVEGLMTTVHATTATQKTVDGPSMKDWRGGRGASQNIIPSSTGAAKAVGKVLPELNGKLTGMAFRVPTTNVSVVDLTCRLANDASYEDVKAAVRAASEGCLKGILGYTDEDVVSNDFIGDSRSSIFDAKAGIGLGTNFMKLVSWYDNEWGYSNRVLDLIQHVARVCAHK
In general, Km refers to the substrate concentration at which the rate is half of its maximum. With B1, the Km worked out at 312 µM.

Values taken from PMC12197075, “Identification of the Glyceraldehyde-3-Phosphate Dehydrogenase (GeGAPDH) Gene Family in Gastrodia elata Revealing Its Response Characteristics to Low-Temperature and Pathogen Stress” (Plants, 2025).
